Target: the molecule itself
Assay: SEC

B1: Aeropyrum pernix Kv (KvAP) channel, wild type (natural protein, UniProt Q9YDF8 1-295, looked up)
chain: MSVERWVFPGCSVMARFRRGLSDLGGRVRNIGDVMEHPLVELGVSYAALLSVIVVVVEYTMQLSGEYLVRLYLVDLILVIILWADYAYRAYKSGDPAGYVKKTLYEIPALVPAGLLALIEGHLAGLGLFRLVRLLRFLRILLIISRGSKFLSAIADAADKIRFYHLFGAVMLTVLYGAFAIYIVEYPDPNSSIKSVFDALWWAVVTATTVGYGDVVPATPIGKVIGIAVMLTGISALTLLIGTVSNMFQKILVGEPEPSCSPAKLAEMVSSMSEEEFEEFVRTLKNLRRLENSMK
Q: With B1 as the protein, how does the “stoichiometry N” value read?
A: Its value is 4.
